Data on two molecules can be found in publication doi:10.1101/2020.05.22.111005 (bioRxiv, 2020).

The target in this test is SARS-CoV-2 RBD fused to mouse Fc (RBD-mFc) (SARS-CoV-2, UniProt P0DTC2). The experiment in a line: BLI.

B1: COV2-2165 (human mAb) (antibody, V domains shown)
VH: EVQLVESGGGLVQPGGSLRLSCAASGLTVRSNYMTWVRQTPGKGLEWVSVIYSGGSTFYADSVKGRFTISRDNSKNTVYLQMNSLRAEDTAVYYCARDLVTYGLDVWGQGTTVTVSS
VL: DIQLTQSPSFLSASVGDRVTITCRASQGISNYLAWYQQKPGTAPNLLIYAASTLQSGVPSRFSGSGSGTEFTLTISSLQPEDFATYYCQLLNSHPLTFGQGTRLEIK
In the case of B1, the binding result is on record as “binds”.

B2: COV2-2196 (human mAb) (antibody, V domains shown)
VH: QMQLVQSGPEVKKPGTSVKVSCKASGFTFMSSAVQWVRQARGQRLEWIGWIVIGSGNTNYAQKFQERVTITRDMSTSTAYMELSSLRSEDTAVYYCAAPYCSSISCNDGFDIWGQGTMVTVSS
VL: not shown
As to B2, the binding result is on record as “binds”.
